According to paper PMC3173040 (Nature structural & molecular biology, 2011):

Biological target: the molecule itself
Experiment: SEC-MALS

B1: VopL fragment 130-484 (3W-VCD) (domain or fragment, Vibrio parahaemolyticus, UniProt Q87GE5 130-484, looked up)
chain: SVNEDHSKLMEQIRQGVKLKSATKSLSADKSSADAHSKLMEELLTGGRKLKKVATSDIPAPPPLPSASTSKSPDSRNALLSEIAGFSKDRLRKTGSLETLNSSQSKDKESFEPTTHERLLSEDLFKQSPKLSEQELDELANNLADYLFQAADIDWHQVISEKTRGLTTEEMAKSEHRYVQAFCREILKYPDCYKSADVASPESPKSGGGSVIDVALKRLQTGRERLFTTTDEKGNRELKKGDAILESAINAARMAISTEEKNTILSNNVKSATFEVFCELPCMDGFAEQNGKTAFYALRAGFYSAFKNTDTAKQDITKFMKDNLQAGFSGYSYQGLTNRVAQLEAQLAALSAKLS
- stoichiometry N: 2
